In patent US20160237164A1 (VIVENTIA BIO, published 2016):
Where two headings read alike, the source gives them in different places.

Experiments:
[1] = biological target: Epithelial Cell Adhesion Molecule (EpCAM) (human) (UniProt P16422)
[2] = biological target: Epithelial Cell Adhesion Molecule (EpCAM) (human) (UniProt P16422); remark: listed apart in the source
[3] = biological target: Epithelial Cell Adhesion Molecule (EpCAM) (human) (UniProt P16422); remark: listed apart in the source
[4] = biological target: T1, Epithelial Cell Adhesion Molecule (EpCAM) (human, UniProt P16422 24-314); assay: flow cytometry on OVCAR-3 cells (EpCAM-positive), purified protein at 100 ng/mL
T1 construct: whole, on cells; also called 17-1A; KSA
T1 sequence (looked up): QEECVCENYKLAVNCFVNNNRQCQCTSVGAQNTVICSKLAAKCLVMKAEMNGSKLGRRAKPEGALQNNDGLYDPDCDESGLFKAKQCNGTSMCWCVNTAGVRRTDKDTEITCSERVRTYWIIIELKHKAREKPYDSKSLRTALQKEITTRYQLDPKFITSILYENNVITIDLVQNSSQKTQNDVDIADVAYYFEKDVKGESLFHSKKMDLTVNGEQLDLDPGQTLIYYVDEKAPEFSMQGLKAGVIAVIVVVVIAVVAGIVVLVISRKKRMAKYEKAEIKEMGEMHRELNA

[5] = biological target: T1, Epithelial Cell Adhesion Molecule …; assay: flow cytometry on MCF-7 cells (EpCAM-positive), purified protein at 100 ng/mL
[6] = biological target: T1, Epithelial Cell Adhesion Molecule …; assay: cell-based or functional assay
[7] = biological target: T1, Epithelial Cell Adhesion Molecule …; assay: flow cytometry on HT-29 cells (EpCAM-positive), purified protein at 100 ng/mL
[8] = biological target: T1, Epithelial Cell Adhesion Molecule …; assay: flow cytometry on CAL-27 cells (EpCAM-positive), purified protein at 100 ng/mL
[9] = biological target: T1, Epithelial Cell Adhesion Molecule …
[10] = biological target: T1, Epithelial Cell Adhesion Molecule …; remark: listed apart in the source
[11] = biological target: T1, Epithelial Cell Adhesion Molecule …; remark: listed apart in the source
[12] = biological target: T1, Epithelial Cell Adhesion Molecule …; remark: listed apart in the source
[13] = biological target: T1, Epithelial Cell Adhesion Molecule …; assay: flow cytometry titration (3.2 to 1000 ng/mL) on CAL-27 cells, Lineweaver-Burk plot
[14] = biological target: T2, Epithelial Cell Adhesion Molecule (EpCAM) (human, UniProt P16422 24-314); assay: flow cytometry (Lineweaver-Burk), Cal-27 cells
T2 chain: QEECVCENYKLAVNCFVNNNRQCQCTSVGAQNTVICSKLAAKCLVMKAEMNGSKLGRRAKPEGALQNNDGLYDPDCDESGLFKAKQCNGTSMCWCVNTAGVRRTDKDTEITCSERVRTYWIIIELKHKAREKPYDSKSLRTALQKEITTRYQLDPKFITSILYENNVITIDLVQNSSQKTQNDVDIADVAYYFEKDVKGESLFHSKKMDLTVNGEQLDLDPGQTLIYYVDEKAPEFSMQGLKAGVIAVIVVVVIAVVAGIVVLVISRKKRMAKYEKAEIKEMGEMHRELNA

## VB6-845 VH-WT / VL-CDR2 (E51-H53-Q55) (Fab)
[1]
  MF (median fluorescence, % of WT): 70 % of WT

## VB6-845 VH-N53 / VL-WT (Fab)
[2]
  MF (median fluorescence, % of WT): 23 % of WT

## VB6-845 VH-WT / VL-FR2 (D41-Q42), first version (Fab)
[3]
  MF (median fluorescence, % of WT): 84 % of WT

## VB6-845 VH-WT / VL-FR2 (H39-S42), second version (Fab)
[1]
  MF (median fluorescence, % of WT): 68 % of WT

## VB6-845 VH-S93 / VL-WT (Fab)
[2]
  MF (median fluorescence, % of WT): 35 % of WT

B1: VB6-845-Algo (VH-IIr-N35-Q98 / VL-IIr-KSHI) (Fab)
heavy: EVQLQQSGPGLVQPGGSVRISCAASGYTFTAYGMNWVRQAPGKGLEWMGWINTYTGESTYADSFKGRFEFSLDTHNSSAYLQIQSLREEDTAVYYCARFAIQGDYWGQGTLVTVSSASTKGPSVFPLAPSSKSTSGGTAALGCLVKDYFPEPVTVSWNSGALTSGVHTFPAVLQSSGLYSLSSVVTVPSSSLGTQTYICNVNHKPSNTKVDKKVEPKSC
light: DIQMTQSPSSLSASVGDRVTITCKSTKSLLHSNGITYLYWYQQKPGSAPKLLIYQMSHLASGVPSRFSSSGSGTDFTLTISSLQPEDFATYYCAQNLEIPRTFGQGTKVEIKRTVAAPSVFIFPPSDEQLKSGTASVVCLLNNFYPREAKVQWKVDNALQSGNSQESVTEQDSKDSTYSLSSTLTLSKADYEKHKVYACEVTHQGLSSPVTKSFNRGECTRHRQPRGWEQKYNTVSFNLGEAYEYPTFIQDLRNELAKGTPVCQLPVTLQTIADDKRFVLVDITTTSKKTVKVAIDVTDVYVVGYQDKWDGKDRAVFLDKVPTVATSKLFPGVTNRVTLTFDGSYQKLVNAAKADRKALELGVNKLEFSIEAIHGKTINGQEAAKFFLIVIQMVSEAARFKYIETEVVDRGLYGSFKPNFKVLNLENNWGDISDAIHKSSPQCTTINPALQLISPSNDPWVVNKVSQISPDMGILKFKSSK
[4]
  FI (fold increase) at 100 ng/mL: 40.9 fold
[5]
  FI (fold increase) at 100 ng/mL: 27.7 fold
[6]
  IC50 (nM), MTS cytotoxicity assay, CAL-27 (EpCAM-positive): 18 nM
  IC50 (nM), MTS cytotoxicity assay, HT-29 (EpCAM-positive): 15 nM
  IC50 (nM), MTS cytotoxicity assay, MCF-7 (EpCAM-positive): 2.3 nM
  IC50 (nM), MTS cytotoxicity assay, OVCAR-3 (EpCAM-positive): 2.9 nM
[7]
  FI (fold increase) at 100 ng/mL: 41.6 fold
[8]
  FI (fold increase) at 100 ng/mL: 14 fold
[9]
  MF (median fluorescence, % of WT): 94 % of WT

B2: VB6-845 VH-IIr-N35-Q98 / VL-WT (Fab)
heavy: EVQLQQSGPGLVQPGGSVRISCAASGYTFTAYGMNWVRQAPGKGLEWMGWINTYTGESTYADSFKGRFEFSLDTHNSSAYLQIQSLREEDTAVYYCARFAIQGDYWGQGTLVTVSSASTKGPSVFPLAPSSKSTSGGTAALGCLVKDYFPEPVTVSWNSGALTSGVHTFPAVLQSSGLYSLSSVVTVPSSSLGTQTYICNVNHKPSNTKVDKKVEPKSC
light: DIQMTQSPSSLSASVGDRVTITCRSTKSLLHSNGITYLYWYQQKPGKAPKLLIYQMSNLASGVPSRFSSSGSGTDFTLTISSLQPEDFATYYCAQNLEIPRTFGQGTKVELKRTVAAPSVFIFPPSDEQLKSGTASVVCLLNNFYPREAKVQWKVDNALQSGNSQESVTEQDSKDSTYSLSSTLTLSKADYEKHKVYACEVTHQGLSSPVTKSFNRGECTRHRQPRGWEQKYNTVSFNLGEAYEYPTFIQDLRNELAKGTPVCQLPVTLQTIADDKRFVLVDITTTSKKTVKVAIDVTDVYVVGYQDKWDGKDRAVFLDKVPTVATSKLFPGVTNRVTLTFDGSYQKLVNAAKADRKALELGVNKLEFSIEAIHGKTINGQEAAKFFLIVIQMVSEAARFKYIETEVVDRGLYGSFKPNFKVLNLENNWGDISDAIHKSSPQCTTINPALQLISPSNDPWVVNKVSQISPDMGILKFKSSK
[10]
  MF (median fluorescence, % of WT): 100 % of WT

B3: VB6-845 VH-WT / VL-IIr-KSHI (Fab)
heavy: EVQLVQSGPGLVQPGGSVRISCAASGYTFTNYGMNWVKQAPGKGLEWMGWINTYTGESTYADSFKGRFTFSLDTSASAAYLQINSLRAEDTAVYYCARFAIKGDYWGQGTLLTVSSASTKGPSVFPLAPSSKSTSGGTAALGCLVKDYFPEPVTVSWNSGALTSGVHTFPAVLQSSGLYSLSSVVTVPSSSLGTQTYICNVNHKPSNTKVDKKVEPKSC
light: DIQMTQSPSSLSASVGDRVTITCKSTKSLLHSNGITYLYWYQQKPGSAPKLLIYQMSHLASGVPSRFSSSGSGTDFTLTISSLQPEDFATYYCAQNLEIPRTFGQGTKVEIKRTVAAPSVFIFPPSDEQLKSGTASVVCLLNNFYPREAKVQWKVDNALQSGNSQESVTEQDSKDSTYSLSSTLTLSKADYEKHKVYACEVTHQGLSSPVTKSFNRGECTRHRQPRGWEQKYNTVSFNLGEAYEYPTFIQDLRNELAKGTPVCQLPVTLQTIADDKRFVLVDITTTSKKTVKVAIDVTDVYVVGYQDKWDGKDRAVFLDKVPTVATSKLFPGVTNRVTLTFDGSYQKLVNAAKADRKALELGVNKLEFSIEAIHGKTINGQEAAKFFLIVIQMVSEAARFKYIETEVVDRGLYGSFKPNFKVLNLENNWGDISDAIHKSSPQCTTINPALQLISPSNDPWVVNKVSQISPDMGILKFKSSK
[11]
  MF (median fluorescence, % of WT): 89 % of WT

B4: VB6-845-(VH-IIr-CDR1/VL-Ir-Q50) (Fab)
chain 1: EVQLVQSGPGLVQPGGSVRISCAASGYTFTNYGMNWVKQAPGKGLEWMGWINTYTGESTYADSFKGRFTFSLDTSASAAYLQINSLRAEDTAVYYCARFAIKGDYWGQGTLLTVSSASTKGPSVFPLAPSSKSTSGGTAALGCLVKDYFPEPVTVSWNSGALTSGVHTFPAVLQSSGLYSLSSVVTVPSSSLGTQTYICNVNHKPSNTKVDKKVEPKSCTRHRQPRGWEQLYNTVSFNLGEAYEYPTFIQDLRNELAKGTPVCQLPVTLQTIADDKRFVLVDITTTSKKTVKVAIDVTDVYVVGYQDKWDGKDRAVFLDKVPTVATSKLFPGVTNRVTLTFDGSYQKLVNAAKADRKALELGVNKLEFSIEAIHGKTINGQEAAKFFLIVIQMVSEAARFKYIETEVVDRGLYGSFKPNFKVLNLENNWGDISDAIHKSSPQCTTINPALQLISPSNDPWVVNKVSQISPDMGILKFKSSK
chain 2: HHHHHHDIQMTQSPSSLSASVGDRVTITCRSTKSLLHSNGITYLYWYQQKPGKAPKLLIYQMSNLASGVPSRFSSSGSGTDFTLTISSLQPEDFATYYCAQNLEIPRTFGQGTKVELKRTVAAPSVFIFPPSDEQLKSGTASVVCLLNNFYPREAKVQWKVDNALQSGNSQESVTEQDSKDSTYSLSSTLTLSKADYEKHKVYACEVTHQGLSSPVTKSFNRGEC
[12]
  MF (median fluorescence, % of WT): 78 % of WT

B5: VB5-845-WT (non-deimmunized VB5-845 Fab fragment) (Fab, V domains shown)
VH: EVQLVQSGPGLVQPGGSVRISCAASGYTFTNYGMNWVKQAPGKGLEWMGWINTYTGESTYADSFKGRFTFSLDTSASAAYLQINSLRAEDTAVYYCARFAIKGDYWGQGTLLTVSS
VL: DIQMTQSPSSLSASVGDRVTITCRSTKSLLHSNGITYLYWYQQKPGKAPKLLIYQMSNLASGVPSRFSSSGSGTDFTLTISSLQPEDFATYYCAQNLEIPRTFGQGTKVELKR
[13]
  Kd: 1.56 nM
[14]
  Kd: 1.46 nM

B6: VB5-845-Algo Fab (Fab, V domains shown)
VH: EVQLQQSGPGLVQPGGSVRISCAASGYTFTAYGMNWVRQAPGKGLEWMGWINTYTGESTYADSFKGRFEFSLDTHNSSAYLQIQSLREEDTAVYYCARFAIQGDYWGQGTLVTVSS
VL: DIQMTQSPSSLSASVGDRVTITCKSTKSLLHSNGITYLYWYQQKPGSAPKLLIYQMSHLASGVPSRFSSSGSGTDFTLTISSLQPEDFATYYCAQNLEIPRTFGQGTKVEIKR
[13]
  Kd: 1.31 nM
